Usually stoichiometry N stands for the number of molecules, sites or subunits per partner or assembly.

The series deals with the molecule itself. The series can be described thus: cryo-EM structure; purified receptor in 20 mM HEPES pH 7.0, 100 mM NaCl, 0.5 mM C12M (DDM); apo, or incubated with 900 uM ATP or with antagonist at 3-4x the molar concentration of the monomer; homotrimer.

B1: full-length wild-type mouse P2X7 receptor (receptor, UniProt Q9Z1M0 1-595, looked up)
chain: MPACCSWNDVLQYETNKVTRIQSTNYGTVKWVLHMIVFSYISFALVSDKLYQRKEPVISSVHTKVKGIAEVTENVTEGGVTKLGHSIFDTADYTFPLQGNSFFVMTNYVKSEGQVQTLCPEYPRRGAQCSSDRRCKKGWMDPQSKGIQTGRCVPYDKTRKTCEVSAWCPTEEEKEAPRPALLRSAENFTVLIKNNIHFPGHNYTTRNILPTMNGSCTFHKTWDPQCSIFRLGDIFQEAGENFTEVAVQGGIMGIEIYWDCNLDSWSHHCRPRYSFRRLDDKNTDESFVPGYNFRYAKYYKENNVEKRTLIKAFGIRFDILVFGTGGKFDIIQLVVYIGSTLSYFGLATVCIDLLINTYSSAFCRSGVYPYCKCCEPCTVNEYYYRKKCESIMEPKPTLKYVSFVDEPHIRMVDQQLLGKSLQVVKGQEVPRPQMDFSDLSRLSLSLHDSPLTPGQSEEIQLLHEEVAPKSGDSPSWCQCGNCLPSRLPEQRRALEELCCRRKPGRCITTSKLFHKLVLSRDTLQLLLLYQDPLLVLGEEATNSRLRHRAYRCYATWRFGSQDMADFAILPSCCRWRIRKEFPKTEGQYSGFKYPY
modifications: palmitoylation of residues on the C-cys anchor; limited glycosylation, acylation and palmitoylation modelled where density allowed
notes: P2X7 receptor (P2X purinoceptor 7), mouse, full-length wild type, no mutations or truncations; UniProt Q9Z1M0; The construct carries a C-terminal GFP, a 3C protease site and a histidine tag; digested with HRV 3C protease before SEC; Homotrimer in the apo closed state structure; also called mP2X7R; mP2X7; source: HEK293 GNTI- cells, BacMam, purified (DDM/CHS, TALON, SEC); not shown: GFP, …
Take B1: the “stoichiometry N” value was determined as 3.

B2: full-length wild-type human P2X7 receptor (receptor, UniProt Q99572 1-595, looked up)
chain: MPACCSCSDVFQYETNKVTRIQSMNYGTIKWFFHVIIFSYVCFALVSDKLYQRKEPVISSVHTKVKGIAEVKEEIVENGVKKLVHSVFDTADYTFPLQGNSFFVMTNFLKTEGQEQRLCPEYPTRRTLCSSDRGCKKGWMDPQSKGIQTGRCVVYEGNQKTCEVSAWCPIEAVEEAPRPALLNSAENFTVLIKNNIDFPGHNYTTRNILPGLNITCTFHKTQNPQCPIFRLGDIFRETGDNFSDVAIQGGIMGIEIYWDCNLDRWFHHCRPKYSFRRLDDKTTNVSLYPGYNFRYAKYYKENNVEKRTLIKVFGIRFDILVFGTGGKFDIIQLVVYIGSTLSYFGLAAVFIDFLIDTYSSNCCRSHIYPWCKCCQPCVVNEYYYRKKCESIVEPKPTLKYVSFVDESHIRMVNQQLLGRSLQDVKGQEVPRPAMDFTDLSRLPLALHDTPPIPGQPEEIQLLRKEATPRSRDSPVWCQCGSCLPSQLPESHRCLEELCCRKKPGACITTSELFRKLVLSRHVLQFLLLYQEPLLALDVDSTNSRLRHCAYRCYATWRFGSQDMADFAILPSCCRWRIRKEFPKSEGQYSGFKSPY
modifications: palmitoylation of residues on the C-cys anchor; limited glycosylation, acylation and palmitoylation modelled where density allowed
notes: P2X7 receptor (P2X purinoceptor 7), human, full-length wild type, no mutations or truncations; UniProt Q99572; The construct carries a C-terminal GFP, a 3C protease site and a histidine tag; the protein was digested with HRV 3C protease before SEC; also called hP2X7R; hP2X7; not shown: GFP, C-terminal, cleaved
For the protein B2, the “stoichiometry N” value worked out at 3.

The values are drawn from article doi:10.1101/2025.02.12.637899, “UB-MBX-46 is a potent and selective antagonist of the human P2X7 receptor developed by structure-based drug design” (bioRxiv, 2025).
